36 variants from the RNAGym collection of RNA variant scans (doi:10.1021/acssynbio.7b00057) can be followed below.

To fix the notation:
B1: Pistol ribozyme (parent)
chain: GGGUCGUUGUUCCAUAAUCGCGUGGAUAUGGCACGCAAGUUUCUACCGGGCACCGUAAAUGUCCGACUGGAGCCGUUCGGGCGGCUAUAAACAGACCUCAGGCCCGAAGCGUGGCGGCACCUGCCGCCGGUGGUAAAAAAGAUCGGAAGAGCACACGUCU

This series covers variants of B1. In words: aptazyme ON/OFF ratio, guanine; higher = stronger switching; co-transcriptional cleavage with and without guanine.
Regarding GGGUCGGAAUGAUAUAAUCGCGUGGAUAUGGCACGCAAGUUUCUACCGGGCACCGUAAAUGUCCGACUGGAGCCGUUCGGGCGGCUAUAAACAGACCUCAGGCCCGAAGCGUGGCGGCACCUGCCGCCGGUGGUAAAAAAGAUCGGAAGAGCACACGUCU, the “aptazyme ON/OFF ratio” value was 1.23. With GGGUCGAUUUGCUAUAAUCGCGUGGAUAUGGCACGCAAGUUUCUACCGGGCACCGUAAAUGUCCGACUGGAGCCGUUCGGGCGGCUAUAAACAGACCUCAGGCCCGAAGCGUGGCGGCACCUGCCGCCGGUGGUAAAAAAGAUCGGAAGAGCACACGUCU the figure was 1.31; with GGGUCGACACGUAAUAAUCGCGUGGAUAUGGCACGCAAGUUUCUACCGGGCACCGUAAAUGUCCGACUGGAGCCGUUCGGGCGGCUAUAAACAGACCUCAGGCCCGAAGCGUGGCGGCACCUGCCGCCGGUGGUAAAAAAGAUCGGAAGAGCACACGUCU, 1.29. With GGGUCGCAAGAACAUAAUCGCGUGGAUAUGGCACGCAAGUUUCUACCGGGCACCGUAAAUGUCCGACUGGAGCCGUUCGGGCGGCUAUAAACAGACCUCAGGCCCGAAGCGUGGCGGCACCUGCCGCCGGUGGUAAAAAAGAUCGGAAGAGCACACGUCU the figure was 1.15; with GGGUCGUGGCUGGAUAAUCGCGUGGAUAUGGCACGCAAGUUUCUACCGGGCACCGUAAAUGUCCGACUGGAGCCGUUCGGGCGGCUAUAAACAGACCUCAGGCCCGAAGCGUGGCGGCACCUGCCGCCGGUGGUAAAAAAGAUCGGAAGAGCACACGUCU, 1.14; with GGGUCGAAUCUCUAUAAUCGCGUGGAUAUGGCACGCAAGUUUCUACCGGGCACCGUAAAUGUCCGACUGGAGCCGUUCGGGCGGCUAUAAACAGACCUCAGGCCCGAAGCGUGGCGGCACCUGCCGCCGGUGGUAAAAAAGAUCGGAAGAGCACACGUCU, 1.2.

Regarding GGGUCGACCUGCCAUAAUCGCGUGGAUAUGGCACGCAAGUUUCUACCGGGCACCGUAAAUGUCCGACUGGAGCCGUUCGGGCGGCUAUAAACAGACCUCAGGCCCGAAGCGUGGCGGCACCUGCCGCCGGUGGUAAAAAAGAUCGGAAGAGCACACGUCU, the “aptazyme ON/OFF ratio” value turned out to be 1.09. GGGUCGCAAGGGUAUAAUCGCGUGGAUAUGGCACGCAAGUUUCUACCGGGCACCGUAAAUGUCCGACUGGAGCCGUUCGGGCGGCUAUAAACAGACCUCAGGCCCGAAGCGUGGCGGCACCUGCCGCCGGUGGUAAAAAAGAUCGGAAGAGCACACGUCU: the “aptazyme ON/OFF ratio” value was determined as 1.2.

For GGGUCGGCUUACCAUAAUCGCGUGGAUAUGGCACGCAAGUUUCUACCGGGCACCGUAAAUGUCCGACUGGAGCCGUUCGGGCGGCUAUAAACAGACCUCAGGCCCGAAGCGUGGCGGCACCUGCCGCCGGUGGUAAAAAAGAUCGGAAGAGCACACGUCU, the “aptazyme ON/OFF ratio” value was 1.8. For GGGUCGACGUAAGAUAAUCGCGUGGAUAUGGCACGCAAGUUUCUACCGGGCACCGUAAAUGUCCGACUGGAGCCGUUCGGGCGGCUAUAAACAGACCUCAGGCCCGAAGCGUGGCGGCACCUGCCGCCGGUGGUAAAAAAGAUCGGAAGAGCACACGUCU, the “aptazyme ON/OFF ratio” value was 1.16. With GGGUCGGGAGCAUAUAAUCGCGUGGAUAUGGCACGCAAGUUUCUACCGGGCACCGUAAAUGUCCGACUGGAGCCGUUCGGGCGGCUAUAAACAGACCUCAGGCCCGAAGCGUGGCGGCACCUGCCGCCGGUGGUAAAAAAGAUCGGAAGAGCACACGUCU the figure was 1.27; with GGGUCGCCCUUAUAUAAUCGCGUGGAUAUGGCACGCAAGUUUCUACCGGGCACCGUAAAUGUCCGACUGGAGCCGUUCGGGCGGCUAUAAACAGACCUCAGGCCCGAAGCGUGGCGGCACCUGCCGCCGGUGGUAAAAAAGAUCGGAAGAGCACACGUCU, 1.13; with GGGUCGGGCAGUCAUAAUCGCGUGGAUAUGGCACGCAAGUUUCUACCGGGCACCGUAAAUGUCCGACUGGAGCCGUUCGGGCGGCUAUAAACAGACCUCAGGCCCGAAGCGUGGCGGCACCUGCCGCCGGUGGUAAAAAAGAUCGGAAGAGCACACGUCU, 1.12. With GGGUCGAAAUUGUAUAAUCGCGUGGAUAUGGCACGCAAGUUUCUACCGGGCACCGUAAAUGUCCGACUGGAGCCGUUCGGGCGGCUAUAAACAGACCUCAGGCCCGAAGCGUGGCGGCACCUGCCGCCGGUGGUAAAAAAGAUCGGAAGAGCACACGUCU, the “aptazyme ON/OFF ratio” value is 1.14.

As for GGGUCGCUCGUCUAUAAUCGCGUGGAUAUGGCACGCAAGUUUCUACCGGGCACCGUAAAUGUCCGACUGGAGCCGUUCGGGCGGCUAUAAACAGACCUCAGGCCCGAAGCGUGGCGGCACCUGCCGCCGGUGGUAAAAAAGAUCGGAAGAGCACACGUCU, the “aptazyme ON/OFF ratio” value turned out to be 1.07. To GGGUCGAUUAAUUAUAAUCGCGUGGAUAUGGCACGCAAGUUUCUACCGGGCACCGUAAAUGUCCGACUGGAGCCGUUCGGGCGGCUAUAAACAGACCUCAGGCCCGAAGCGUGGCGGCACCUGCCGCCGGUGGUAAAAAAGAUCGGAAGAGCACACGUCU belongs 1.06; to GGGUCGACUCGGUAUAAUCGCGUGGAUAUGGCACGCAAGUUUCUACCGGGCACCGUAAAUGUCCGACUGGAGCCGUUCGGGCGGCUAUAAACAGACCUCAGGCCCGAAGCGUGGCGGCACCUGCCGCCGGUGGUAAAAAAGAUCGGAAGAGCACACGUCU, 1.06; to GGGUCGCGGAAGAAUAAUCGCGUGGAUAUGGCACGCAAGUUUCUACCGGGCACCGUAAAUGUCCGACUGGAGCCGUUCGGGCGGCUAUAAACAGACCUCAGGCCCGAAGCGUGGCGGCACCUGCCGCCGGUGGUAAAAAAGAUCGGAAGAGCACACGUCU, 1.11. To GGGUCGGCACGCUAUAAUCGCGUGGAUAUGGCACGCAAGUUUCUACCGGGCACCGUAAAUGUCCGACUGGAGCCGUUCGGGCGGCUAUAAACAGACCUCAGGCCCGAAGCGUGGCGGCACCUGCCGCCGGUGGUAAAAAAGAUCGGAAGAGCACACGUCU belongs 1.24; to GGGUCGGCACAGCAUAAUCGCGUGGAUAUGGCACGCAAGUUUCUACCGGGCACCGUAAAUGUCCGACUGGAGCCGUUCGGGCGGCUAUAAACAGACCUCAGGCCCGAAGCGUGGCGGCACCUGCCGCCGGUGGUAAAAAAGAUCGGAAGAGCACACGUCU, 1.18; to GGGUCGGUGGUCUAUAAUCGCGUGGAUAUGGCACGCAAGUUUCUACCGGGCACCGUAAAUGUCCGACUGGAGCCGUUCGGGCGGCUAUAAACAGACCUCAGGCCCGAAGCGUGGCGGCACCUGCCGCCGGUGGUAAAAAAGAUCGGAAGAGCACACGUCU, 1.17. With GGGUCGUGUCCUAAUAAUCGCGUGGAUAUGGCACGCAAGUUUCUACCGGGCACCGUAAAUGUCCGACUGGAGCCGUUCGGGCGGCUAUAAACAGACCUCAGGCCCGAAGCGUGGCGGCACCUGCCGCCGGUGGUAAAAAAGAUCGGAAGAGCACACGUCU the figure was 1.02. On to GGGUCGGGUCGGGAUAAUCGCGUGGAUAUGGCACGCAAGUUUCUACCGGGCACCGUAAAUGUCCGACUGGAGCCGUUCGGGCGGCUAUAAACAGACCUCAGGCCCGAAGCGUGGCGGCACCUGCCGCCGGUGGUAAAAAAGAUCGGAAGAGCACACGUCU, for which the “aptazyme ON/OFF ratio” value worked out at 1.15. To GGGUCGGCCUGUAAUAAUCGCGUGGAUAUGGCACGCAAGUUUCUACCGGGCACCGUAAAUGUCCGACUGGAGCCGUUCGGGCGGCUAUAAACAGACCUCAGGCCCGAAGCGUGGCGGCACCUGCCGCCGGUGGUAAAAAAGAUCGGAAGAGCACACGUCU belongs 1.3; to GGGUCGCCUAACUAUAAUCGCGUGGAUAUGGCACGCAAGUUUCUACCGGGCACCGUAAAUGUCCGACUGGAGCCGUUCGGGCGGCUAUAAACAGACCUCAGGCCCGAAGCGUGGCGGCACCUGCCGCCGGUGGUAAAAAAGAUCGGAAGAGCACACGUCU, 1.22; to GGGUCGCGGGUUUAUAAUCGCGUGGAUAUGGCACGCAAGUUUCUACCGGGCACCGUAAAUGUCCGACUGGAGCCGUUCGGGCGGCUAUAAACAGACCUCAGGCCCGAAGCGUGGCGGCACCUGCCGCCGGUGGUAAAAAAGAUCGGAAGAGCACACGUCU, 1.37. With GGGUCGUAAGUAGAUAAUCGCGUGGAUAUGGCACGCAAGUUUCUACCGGGCACCGUAAAUGUCCGACUGGAGCCGUUCGGGCGGCUAUAAACAGACCUCAGGCCCGAAGCGUGGCGGCACCUGCCGCCGGUGGUAAAAAAGAUCGGAAGAGCACACGUCU the figure was 1.15; with GGGUCGGUAGGCUAUAAUCGCGUGGAUAUGGCACGCAAGUUUCUACCGGGCACCGUAAAUGUCCGACUGGAGCCGUUCGGGCGGCUAUAAACAGACCUCAGGCCCGAAGCGUGGCGGCACCUGCCGCCGGUGGUAAAAAAGAUCGGAAGAGCACACGUCU, 1.14.

Consider GGGUCGCGUUCUUAUAAUCGCGUGGAUAUGGCACGCAAGUUUCUACCGGGCACCGUAAAUGUCCGACUGGAGCCGUUCGGGCGGCUAUAAACAGACCUCAGGCCCGAAGCGUGGCGGCACCUGCCGCCGGUGGUAAAAAAGAUCGGAAGAGCACACGUCU, for which the “aptazyme ON/OFF ratio” value worked out at 1.32. With GGGUCGGUGCGCAAUAAUCGCGUGGAUAUGGCACGCAAGUUUCUACCGGGCACCGUAAAUGUCCGACUGGAGCCGUUCGGGCGGCUAUAAACAGACCUCAGGCCCGAAGCGUGGCGGCACCUGCCGCCGGUGGUAAAAAAGAUCGGAAGAGCACACGUCU the figure was 1.08; with GGGUCGCCCGGCGAUAAUCGCGUGGAUAUGGCACGCAAGUUUCUACCGGGCACCGUAAAUGUCCGACUGGAGCCGUUCGGGCGGCUAUAAACAGACCUCAGGCCCGAAGCGUGGCGGCACCUGCCGCCGGUGGUAAAAAAGAUCGGAAGAGCACACGUCU, 1.08. To GGGUCGGGCGGAAAUAAUCGCGUGGAUAUGGCACGCAAGUUUCUACCGGGCACCGUAAAUGUCCGACUGGAGCCGUUCGGGCGGCUAUAAACAGACCUCAGGCCCGAAGCGUGGCGGCACCUGCCGCCGGUGGUAAAAAAGAUCGGAAGAGCACACGUCU belongs 1.09. To GGGUCGGUCUGGCAUAAUCGCGUGGAUAUGGCACGCAAGUUUCUACCGGGCACCGUAAAUGUCCGACUGGAGCCGUUCGGGCGGCUAUAAACAGACCUCAGGCCCGAAGCGUGGCGGCACCUGCCGCCGGUGGUAAAAAAGAUCGGAAGAGCACACGUCU belongs 1.31. In the case of GGGUCGACAAGUGAUAAUCGCGUGGAUAUGGCACGCAAGUUUCUACCGGGCACCGUAAAUGUCCGACUGGAGCCGUUCGGGCGGCUAUAAACAGACCUCAGGCCCGAAGCGUGGCGGCACCUGCCGCCGGUGGUAAAAAAGAUCGGAAGAGCACACGUCU, the “aptazyme ON/OFF ratio” value is 1.24.

In the case of GGGUCGUCGGUUCAUAAUCGCGUGGAUAUGGCACGCAAGUUUCUACCGGGCACCGUAAAUGUCCGACUGGAGCCGUUCGGGCGGCUAUAAACAGACCUCAGGCCCGAAGCGUGGCGGCACCUGCCGCCGGUGGUAAAAAAGAUCGGAAGAGCACACGUCU, the “aptazyme ON/OFF ratio” value came out at 1.36. With GGGUCGUAUCGUUAUAAUCGCGUGGAUAUGGCACGCAAGUUUCUACCGGGCACCGUAAAUGUCCGACUGGAGCCGUUCGGGCGGCUAUAAACAGACCUCAGGCCCGAAGCGUGGCGGCACCUGCCGCCGGUGGUAAAAAAGAUCGGAAGAGCACACGUCU the figure was 1.25.
